This test addresses Flag-tagged ARNO (p3XFLAG-2-mCytohesin-2). Description: co-immunoprecipitation (anti-FLAG M2 IP of FLAG-ARNO, immunoblot for FE65, quantified). The conditions noted are these: transfected cell lysate; three independent experiments; unpaired t-test, *p < 0.001; parent: 1. On the technique in general: A western blot detects proteins with antibodies after separation by electrophoresis.

For the substance “Myc-tagged FE65 (from UniProt O00213) R605A”, the ratio to parent stood at 0.34.

(Values after paper PMC9516341.)
